Biological target: T1, Abp1 SH3 (ABP1_YEAST), P15891
T1 chain: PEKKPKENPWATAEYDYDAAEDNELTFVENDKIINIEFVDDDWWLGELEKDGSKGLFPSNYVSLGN
Test: SPOT array

Q: YVTFTTIPYKEKP [YCL058C 12-24] was tested. Which normalised SPOT signal, Boehringer light units (BLU); mean over the file's lines of this peptide did it give?
A: 70.4

Q: Which normalised SPOT signal, Boehringer light units (BLU); mean over the file's lines of this peptide does the source give for YYNDLSYYLRPIKP [Q0115 375-388] here?
A: 128

Q: Which normalised SPOT signal, Boehringer light units (BLU); mean over the file's lines of this peptide does the source give for YYRELLSFLSPGKP [YML005W 156-169] here?
A: 59.8

Q: Which normalised SPOT signal, Boehringer light units (BLU); mean over the file's lines of this peptide does the source give for YYRLDALPKDGKP [YGL245W 693-705] here?
A: 219

Q: YYSASPLPASKRP [YMR108W 43-55] was tested. Which normalised SPOT signal, Boehringer light units (BLU); mean over the file's lines of this peptide did it give?
A: 144

Q: How did the normalised SPOT signal, Boehringer light units (BLU); mean over the file's lines of this peptide turn out when YYVLNPNNKQPIKP [YNL076W 85-98] was run?
A: 82.3

Q: How did the normalised SPOT signal, Boehringer light units (BLU); mean over the file's lines of this peptide turn out when YYVSKRVPVKNRP [YNL023C 118-130] was run?
A: 211

Q: How did the normalised SPOT signal, Boehringer light units (BLU); mean over the file's lines of this peptide turn out when AAAAPPLPSDVRP [YDR159W 245-257] was run?
A: 60.6

Q: Which normalised SPOT signal, Boehringer light units (BLU); mean over the file's lines of this peptide does the source give for AAADSVSPDSQRP [YLL027W 53-65] here?
A: 182

Q: Which normalised SPOT signal, Boehringer light units (BLU); mean over the file's lines of this peptide does the source give for AAAPDVKPHDTKP [YPR125W 432-444] here?
A: 45.6

Q: For AAELGNNALPPTKP [YNR046W 63-76], which normalised SPOT signal, Boehringer light units (BLU); mean over the file's lines of this peptide is on record?
A: 86.6

Q: With AAPNSNVPTNERP [YGL122C 485-497] as the binder, how does the normalised SPOT signal, Boehringer light units (BLU); mean over the file's lines of this peptide read?
A: 146

Q: For AAVPTKTIASPQRP [YOR227W 52-65], which normalised SPOT signal, Boehringer light units (BLU); mean over the file's lines of this peptide is on record?
A: 243

Q: For AAYNAKKAAKPAKP [YAL003W 104-117], which normalised SPOT signal, Boehringer light units (BLU); mean over the file's lines of this peptide is on record?
A: 109

Q: With ASVEQFDLKMPSKP [YLR055C 485-498] as the binder, how does the normalised SPOT signal, Boehringer light units (BLU); mean over the file's lines of this peptide read?
A: 112

Q: Which normalised SPOT signal, Boehringer light units (BLU); mean over the file's lines of this peptide does the source give for ADDSFIFPDEDKP [YNL103W 152-164] here?
A: 61.8

Q: For ADQRKLFPNWIKP [YHR165C 1003-1015], which normalised SPOT signal, Boehringer light units (BLU); mean over the file's lines of this peptide is on record?
A: 456

Q: AEGNVKPWNPPQKP [YLR295C 56-69] was tested. Which normalised SPOT signal, Boehringer light units (BLU); mean over the file's lines of this peptide did it give?
A: 160

Q: How did the normalised SPOT signal, Boehringer light units (BLU); mean over the file's lines of this peptide turn out when AGDDEPGADEPARP [YOL073C 298-311] was run?
A: 27.3

Q: With AGGGIWGPMEKKP [YHR093W 43-55] as the binder, how does the normalised SPOT signal, Boehringer light units (BLU); mean over the file's lines of this peptide read?
A: 120

Q: For AGPKPSISLVPDKP [YLR189C 14-27], which normalised SPOT signal, Boehringer light units (BLU); mean over the file's lines of this peptide is on record?
A: 233

Q: Which normalised SPOT signal, Boehringer light units (BLU); mean over the file's lines of this peptide does the source give for AHLSAADPDFYKP [YOR153W 112-124] here?
A: 94.4

Q: AIAYDNAPYSPKP [YGL008C 735-747] was tested. Which normalised SPOT signal, Boehringer light units (BLU); mean over the file's lines of this peptide did it give?
A: 173

Q: For AIDPPRRPHNVKP [YCL048W 27-39], which normalised SPOT signal, Boehringer light units (BLU); mean over the file's lines of this peptide is on record?
A: 2120

Q: For AIIDRIPPPTGRP [YLR289W 219-231], which normalised SPOT signal, Boehringer light units (BLU); mean over the file's lines of this peptide is on record?
A: 132

Q: AIIYHHKAGDPFKP [YGR276C 328-341] was tested. Which normalised SPOT signal, Boehringer light units (BLU); mean over the file's lines of this peptide did it give?
A: 155

Q: Which normalised SPOT signal, Boehringer light units (BLU); mean over the file's lines of this peptide does the source give for AIKSIYSPSDKRP [YBR229C 581-593] here?
A: 351

Q: AIRKENLPNLEKP [YDR150W 1608-1620] was tested. Which normalised SPOT signal, Boehringer light units (BLU); mean over the file's lines of this peptide did it give?
A: 72.3

Q: For AISIFDMNLSPIKP [YKL108W 91-104], which normalised SPOT signal, Boehringer light units (BLU); mean over the file's lines of this peptide is on record?
A: 40.2

Q: For AKDPIRTPDAKKP [YLR226W 381-393], which normalised SPOT signal, Boehringer light units (BLU); mean over the file's lines of this peptide is on record?
A: 328

Q: AKKEFDEKLPPKKP [YMR072W 106-119] was tested. Which normalised SPOT signal, Boehringer light units (BLU); mean over the file's lines of this peptide did it give?
A: 87.3

Q: With AKSTRSSPQKAKP [YBR203W 447-459] as the binder, how does the normalised SPOT signal, Boehringer light units (BLU); mean over the file's lines of this peptide read?
A: 88.6

Q: ALDGSSKPFKVKP [YLR392C 95-107] was tested. Which normalised SPOT signal, Boehringer light units (BLU); mean over the file's lines of this peptide did it give?
A: 223

Q: For ALFGFRDPNGIRP [YMR300C 181-193], which normalised SPOT signal, Boehringer light units (BLU); mean over the file's lines of this peptide is on record?
A: 102

Q: Which normalised SPOT signal, Boehringer light units (BLU); mean over the file's lines of this peptide does the source give for ALKDFHSTLDPSKP [YOR251C 241-254] here?
A: 91.9

Q: With ALKQKKIPPPFKP [YHR205W 678-690] as the binder, how does the normalised SPOT signal, Boehringer light units (BLU); mean over the file's lines of this peptide read?
A: 5260

Q: For ALNDSMFFPYPFKP [YGL131C 433-446], which normalised SPOT signal, Boehringer light units (BLU); mean over the file's lines of this peptide is on record?
A: 138

Q: Which normalised SPOT signal, Boehringer light units (BLU); mean over the file's lines of this peptide does the source give for ALPLPAVFSAPIRP [YBR031W 19-32] here?
A: 49.7

Q: ALPTGAPPTTPSRP [YGR170W 87-100] was tested. Which normalised SPOT signal, Boehringer light units (BLU); mean over the file's lines of this peptide did it give?
A: 92.1

Q: Which normalised SPOT signal, Boehringer light units (BLU); mean over the file's lines of this peptide does the source give for ALWEVGSGGDPTKP [YEL056W 186-199] here?
A: 80.3

Q: AMIAHLSPHNARP [YJR124C 130-142] was tested. Which normalised SPOT signal, Boehringer light units (BLU); mean over the file's lines of this peptide did it give?
A: 464

Q: With AMLEEQVKSNPNRP [YGR234W 289-302] as the binder, how does the normalised SPOT signal, Boehringer light units (BLU); mean over the file's lines of this peptide read?
A: 0

Q: How did the normalised SPOT signal, Boehringer light units (BLU); mean over the file's lines of this peptide turn out when ANISTSDPDFYKP [YDR406W 122-134] was run?
A: 99.2

Q: For ANSVPIMPTLPPRP [YGL060W 533-546], which normalised SPOT signal, Boehringer light units (BLU); mean over the file's lines of this peptide is on record?
A: 112

Q: Which normalised SPOT signal, Boehringer light units (BLU); mean over the file's lines of this peptide does the source give for ANVQNVIPDDSKP [YDR331W 298-310] here?
A: 35.4

Q: APEIINDLNHPEKP [YEL070W 157-170] was tested. Which normalised SPOT signal, Boehringer light units (BLU); mean over the file's lines of this peptide did it give?
A: 86

Q: With APIIGSPRHAPSRP [YOL138C 1118-1131] as the binder, how does the normalised SPOT signal, Boehringer light units (BLU); mean over the file's lines of this peptide read?
A: 8310

Q: Which normalised SPOT signal, Boehringer light units (BLU); mean over the file's lines of this peptide does the source give for APIPESPANSPTRP [YMR115W 51-64] here?
A: 190

Q: APKKWKAPKGPKP [YGL099W 6-18] was tested. Which normalised SPOT signal, Boehringer light units (BLU); mean over the file's lines of this peptide did it give?
A: 332

Q: Which normalised SPOT signal, Boehringer light units (BLU); mean over the file's lines of this peptide does the source give for APLNLDNPSSERP [YPL012W 496-508] here?
A: 103

Q: Which normalised SPOT signal, Boehringer light units (BLU); mean over the file's lines of this peptide does the source give for AQKDSSVVSEPKKP [YOR098C 642-655] here?
A: 99.8

Q: With AQLLNPNRRAPRRP [YJL128C 177-190] as the binder, how does the normalised SPOT signal, Boehringer light units (BLU); mean over the file's lines of this peptide read?
A: 364

Q: Which normalised SPOT signal, Boehringer light units (BLU); mean over the file's lines of this peptide does the source give for AQVVLIPAGVPRKP [YDL078C 69-82] here?
A: 53.3

Q: Which normalised SPOT signal, Boehringer light units (BLU); mean over the file's lines of this peptide does the source give for ARTGYETPVKVRP [YCL055W 274-286] here?
A: 342

Q: How did the normalised SPOT signal, Boehringer light units (BLU); mean over the file's lines of this peptide turn out when ASIVVIPAGVPRKP [YOL126C 141-154] was run?
A: 199

Q: For ASKLVEQHMAPPKP [YPL085W 1841-1854], which normalised SPOT signal, Boehringer light units (BLU); mean over the file's lines of this peptide is on record?
A: 122

Q: Which normalised SPOT signal, Boehringer light units (BLU); mean over the file's lines of this peptide does the source give for ASLFPRDPKRLRP [YLL018C 545-557] here?
A: 1990

Q: With ASLRAGLPTVIKP [YLR189C 1077-1089] as the binder, how does the normalised SPOT signal, Boehringer light units (BLU); mean over the file's lines of this peptide read?
A: 78.3

From PMC314469, “Protein Interaction Networks by Proteome Peptide Scanning” (PLoS Biology, 2004)
